The results in this text go back to the supplement of paper PMC10598134.

This data set in a line: collision cross section of modified peptide (TIMS, N2, iRT-aligned); higher = larger / more extended gas-phase ion. Summed up: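 Values are averages of 1–3 technical replicates of the most abundant feature for each charge state. Collision cross section was obtained from the Mason-Schamp equation after 1/K0 calibration with three reference ions and run-wise alignment to the median iRT peptide deviation. Synthetic peptide pools (iRT standard spiked 1:40) were separated on a 120-min nanoflow C18 gradient at 60 °C, analysed on a timsTOF Pro/HT (dda-PASEF, nitrogen, ~2.4 mbar) and identified with MaxQuant.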

The mark [1] stands for this setting: charge state: 3, modification: Methyl (K).
The mark [2] stands for this setting: charge state: 2, modification: Succinyl.
The mark [3] stands for this setting: charge state: 2, modification: hydroxyisobutyryl.
Where [4] appears, read: charge state: 2, modification: Hydroxyproline.
Setting [5] is: charge state: 2, modification: Citrullination (R).
Setting [6] is: charge state: 3, modification: Methyl (R).
Setting [7] is: charge state: 2, modification: Acetyl (K).
[8] abbreviates: charge state: 3, modification: Acetyl (K).
[9] abbreviates: charge state: 2, modification: Biotin.
[10] abbreviates: charge state: 3, modification: Biotin.
Setting [11] is: charge state: 2, modification: Butyryl.
Setting [12] is: charge state: 3, modification: Butyryl.
[13] abbreviates: charge state: 2, modification: Crotonyl.
The mark [14] stands for this setting: charge state: 3, modification: Crotonyl.
The mark [15] stands for this setting: charge state: 2, modification: Dimethyl (K).
The mark [16] stands for this setting: charge state: 3, modification: Dimethyl (K).
[17] abbreviates: charge state: 2, modification: Formyl.
Setting [18] is: charge state: 3, modification: Formyl.
Setting [19] is: charge state: 2, modification: Glutarylation.
[20] abbreviates: charge state: 3, modification: Glutarylation.
The mark [21] stands for this setting: charge state: 2, modification: GlyGly (K).
[22] abbreviates: charge state: 3, modification: GlyGly (K).
Setting [23] is: charge state: 2, modification: Malonyl.
[24] abbreviates: charge state: 2, modification: Methyl (K).
Setting [25] is: charge state: 3, modification: Succinyl.
The mark [26] stands for this setting: charge state: 2, modification: Trimethyl (K).
Where [27] appears, read: charge state: 3, modification: Trimethyl (K).
[28] abbreviates: charge state: 3, modification: hydroxyisobutyryl.

± gives the standard deviation.

Under setting [1], “GSLGAQKLANTCFNEIEK [_GSLGAQK(Methyl (K))LANTCFNEIEK_]” displayed a collision cross section of 509.24 Å².

For “GSLGAQKLANTCFNEIEK [_GSLGAQK(Succinyl)LANTCFNEIEK_]”, the collision cross section under setting [2] worked out at 470.21 ± 0.66 Å².

With “GSLGAQKLANTCFNEIEK [_GSLGAQK(hydroxyisobutyryl)LANTCFNEIEK_]”, the collision cross section under setting [3] is listed as 476.97 ± 0.8 Å².

For GSRGFPGEK [_GSRGFP(Hydroxyproline)GEK_], the collision cross section under setting [4] was 330.58 ± 0.79 Å².

“GSYLGGYSAGRGIYSR [_GSYLGGYSAGR(Citrullination (R))GIYSR_]” showed a collision cross section under setting [5] of 429.9 ± 0.2 Å² and a collision cross section (charge state: 3, modification: Citrullination (R)) of 475.97 ± 0.76 Å².

Under setting [6], “GSYLGGYSAGRGIYSR [_GSYLGGYSAGR(Methyl (R))GIYSR_]” registered a collision cross section of 481.98 Å².

“GTGRGGGGGGGGGAPR [_GTGR(Citrullination (R))GGGGGGGGGAPR_]” displayed a collision cross section under setting [5] of 349.34 ± 0.64 Å².

Sequence “GTGRGGGGGGGGGAPR [_GTGR(Methyl (R))GGGGGGGGGAPR_]” returned a collision cross section under setting [6] of 445.93 ± 3.2 Å².

With “GTISAPGKVVTAAAQAK [_GTISAPGK(Acetyl (K))VVTAAAQAK_]”, the collision cross section by setting is: under setting [7], 440.91 ± 2.6 Å²; under setting [8], 515.28 ± 2 Å².

Regarding “GTISAPGKVVTAAAQAK [_GTISAPGK(Biotin)VVTAAAQAK_]”, the collision cross section came out at 458.66 ± 0.47 Å² under setting [9] and 550.8 ± 0.34 Å² under setting [10].

In the case of “GTISAPGKVVTAAAQAK [_GTISAPGK(Butyryl)VVTAAAQAK_]”, the collision cross section is given as 447.93 ± 0.25 Å² under setting [11] and 519.35 ± 2.9 Å² under setting [12].

On to “GTISAPGKVVTAAAQAK [_GTISAPGK(Crotonyl)VVTAAAQAK_]”, for which the collision cross section was 447.33 ± 0.83 Å² under setting [13] and 518.96 ± 1.2 Å² under setting [14].

In the case of “GTISAPGKVVTAAAQAK [_GTISAPGK(Dimethyl (K))VVTAAAQAK_]”, the collision cross section by setting is: under setting [15], 470.82 ± 0.68 Å²; under setting [16], 493.04 ± 1.7 Å².

In turn, “GTISAPGKVVTAAAQAK [_GTISAPGK(Formyl)VVTAAAQAK_]” displayed a collision cross section under setting [17] of 440.5 ± 0.16 Å² and a collision cross section under setting [18] of 511.74 ± 2.1 Å².

“GTISAPGKVVTAAAQAK [_GTISAPGK(Gluratylation)VVTAAAQAK_]” gave a collision cross section under setting [19] of 445.81 ± 0.95 Å² and a collision cross section under setting [20] of 526.52 ± 1.1 Å².

“GTISAPGKVVTAAAQAK [_GTISAPGK(GlyGly (K))VVTAAAQAK_]”: the collision cross section under setting [21] is on record as 456.01 ± 1.6 Å² and the collision cross section under setting [22] came out at 541.49 ± 0.36 Å².

For “GTISAPGKVVTAAAQAK [_GTISAPGK(Malonyl)VVTAAAQAK_]”, the collision cross section reads like this: under setting [23], 432.93 ± 5.1 Å²; (charge state: 3, modification: Malonyl) 519.93 ± 1.9 Å².

For “GTISAPGKVVTAAAQAK [_GTISAPGK(Methyl (K))VVTAAAQAK_]”, the collision cross section is, setting by setting: under setting [24], 466.62 ± 2.3 Å²; under setting [1], 495.95 ± 2.3 Å².

On to “GTISAPGKVVTAAAQAK [_GTISAPGK(Succinyl)VVTAAAQAK_]”, for which the collision cross section reads like this: under setting [2], 439.98 ± 0.51 Å²; under setting [25], 520.85 ± 1.6 Å².

Regarding “GTISAPGKVVTAAAQAK [_GTISAPGK(Trimethyl (K))VVTAAAQAK_]”, the collision cross section is, setting by setting: under setting [26], 476.61 ± 0.99 Å²; under setting [27], 496.52 ± 0.86 Å².

With “GTISAPGKVVTAAAQAK [_GTISAPGK(hydroxyisobutyryl)VVTAAAQAK_]”, the collision cross section under setting [3] is recorded as 447.84 ± 0.78 Å² and the collision cross section under setting [28] was found to be 524.07 ± 2 Å².

Regarding “GTITVSAQELKDNR [_GTITVSAQELK(Acetyl (K))DNR_]”, the collision cross section under setting [7] came out at 415.96 ± 1.9 Å² and the collision cross section under setting [8] was 479.46 ± 0.78 Å².

In the case of “GTITVSAQELKDNR [_GTITVSAQELK(Biotin)DNR_]”, the collision cross section amounted to 437.8 ± 0.23 Å² under setting [9] and 500.75 Å² under setting [10].

Regarding “GTITVSAQELKDNR [_GTITVSAQELK(Butyryl)DNR_]”, the collision cross section is, setting by setting: under setting [11], 422.6 ± 0.77 Å²; under setting [12], 481.65 ± 2.9 Å².

Turning to “GTITVSAQELKDNR [_GTITVSAQELK(Crotonyl)DNR_]”, the collision cross section is, setting by setting: under setting [13], 422.36 ± 0.55 Å²; under setting [14], 483.09 ± 1.6 Å².

In turn, “GTITVSAQELKDNR [_GTITVSAQELK(Dimethyl (K))DNR_]” came in with a collision cross section under setting [15] of 437.65 ± 1.3 Å² and a collision cross section under setting [16] of 475.47 ± 2.4 Å².

For “GTITVSAQELKDNR [_GTITVSAQELK(Formyl)DNR_]”, the collision cross section turned out to be 413.69 ± 0.19 Å² under setting [17] and 471.67 ± 1.8 Å² under setting [18].

“GTITVSAQELKDNR [_GTITVSAQELK(Gluratylation)DNR_]” displayed a collision cross section under setting [19] of 422.99 ± 0.48 Å² and a collision cross section under setting [20] of 483.37 ± 1.7 Å².

“GTITVSAQELKDNR [_GTITVSAQELK(GlyGly (K))DNR_]”: the collision cross section reads like this: under setting [21], 442.89 ± 0.96 Å²; under setting [22], 487.43 ± 0.34 Å².

Under setting [23], “GTITVSAQELKDNR [_GTITVSAQELK(Malonyl)DNR_]” gave a collision cross section of 419.75 ± 0.051 Å².

Sequence “GTITVSAQELKDNR [_GTITVSAQELK(Methyl (K))DNR_]” displayed a collision cross section under setting [24] of 439.73 ± 1.7 Å² and a collision cross section under setting [1] of 485.75 ± 3.3 Å².

The sequence “GTITVSAQELKDNR [_GTITVSAQELK(Propionyl)DNR_]” showed a collision cross section (charge state: 2, modification: Propionyl) of 415.55 Å².

As to “GTITVSAQELKDNR [_GTITVSAQELK(Succinyl)DNR_]”, the collision cross section came out at 421.79 ± 0.53 Å² under setting [2] and 480.4 ± 2.5 Å² under setting [25].

“GTITVSAQELKDNR [_GTITVSAQELK(Trimethyl (K))DNR_]”: the collision cross section reads like this: under setting [26], 442.48 ± 1 Å²; under setting [27], 479.04 ± 1.8 Å².

Take “GTITVSAQELKDNR [_GTITVSAQELK(hydroxyisobutyryl)DNR_]”: the collision cross section by setting is: under setting [3], 423.58 ± 0.3 Å²; under setting [28], 485.27 ± 2.8 Å².

GTPGKPGPR [_GTPGKP(Hydroxyproline)GPR_] returned a collision cross section under setting [4] of 308.55 Å².

Consider “GTVPDDAVEALADSLGKK [_GTVPDDAVEALADSLGK(Acetyl (K))K_]”, for which the collision cross section stood at 449.76 ± 3.1 Å² under setting [7] and 527.69 ± 0.69 Å² under setting [8].

In the case of “GTVPDDAVEALADSLGKK [_GTVPDDAVEALADSLGK(Butyryl)K_]”, the collision cross section came to 458.53 ± 0.36 Å² under setting [11] and 534.24 ± 1.4 Å² under setting [12].

Consider “GTVPDDAVEALADSLGKK [_GTVPDDAVEALADSLGK(Crotonyl)K_]”, for which the collision cross section turned out to be 456.44 ± 0.38 Å² under setting [13] and 536.14 Å² under setting [14].

In the case of “GTVPDDAVEALADSLGKK [_GTVPDDAVEALADSLGK(Dimethyl (K))K_]”, the collision cross section is given as 485.51 ± 1.7 Å² under setting [15] and 525.76 Å² under setting [16].

On to “GTVPDDAVEALADSLGKK [_GTVPDDAVEALADSLGK(Formyl)K_]”, for which the collision cross section was 449.34 ± 1.3 Å² under setting [17] and 523.67 ± 1.8 Å² under setting [18].

As to “GTVPDDAVEALADSLGKK [_GTVPDDAVEALADSLGK(Gluratylation)K_]”, the collision cross section is, setting by setting: under setting [19], 452.53 ± 1.2 Å²; under setting [20], 538.57 ± 1.8 Å².

Turning to “GTVPDDAVEALADSLGKK [_GTVPDDAVEALADSLGK(GlyGly (K))K_]”, the collision cross section runs as follows: under setting [21], 485.77 ± 1.3 Å²; under setting [22], 534.99 ± 1.1 Å².

“GTVPDDAVEALADSLGKK [_GTVPDDAVEALADSLGK(Malonyl)K_]” displayed a collision cross section under setting [23] of 454.67 ± 1.4 Å².

In the case of “GTVPDDAVEALADSLGKK [_GTVPDDAVEALADSLGK(Methyl (K))K_]”, the collision cross section runs as follows: under setting [24], 482.51 ± 3.5 Å²; under setting [1], 524.02 ± 2.6 Å².

With “GTVPDDAVEALADSLGKK [_GTVPDDAVEALADSLGK(Succinyl)K_]”, the collision cross section under setting [2] was 459.53 ± 1.1 Å² and the collision cross section under setting [25] is reported as 536.91 ± 2.2 Å².

For the sequence “GTVPDDAVEALADSLGKK [_GTVPDDAVEALADSLGK(Trimethyl (K))K_]”, the collision cross section is on record as 486.05 ± 4.8 Å² under setting [26] and 534.79 ± 2.4 Å² under setting [27].

For “GTVPDDAVEALADSLGKK [_GTVPDDAVEALADSLGK(hydroxyisobutyryl)K_]”, the collision cross section reads like this: under setting [3], 460.24 ± 0.81 Å²; under setting [28], 537.74 ± 2.1 Å².

Regarding “GVEAVGSYAENQR [_GVEAVGSY(Nitro (Y))AENQR_]”, the collision cross section runs as follows: (charge state: 2, modification: Nitro (Y)) 377.43 ± 0.17 Å²; (charge state: 3, modification: Nitro (Y)) 473.04 ± 0.83 Å².

With “GVEAVGSYAENQR [_GVEAVGSY(Phospho (Y))AENQR_]”, the collision cross section reads like this: (charge state: 2, modification: Phospho (Y)) 388.79 ± 0.77 Å²; (charge state: 3, modification: Phospho (Y)) 472.71 ± 0.98 Å².
